Where “and” joins values, the source holds several entries; their conditions need not be identical. Equal entries are not always repeated.
What was measured:
[1] = target: StyA1 styrene monooxygenase from Rhodococcus opacus 1CP (Rhodococcus opacus 1CP) (UniProt C7ACG0); experiment: SEC; analytical gel filtration, Superdex 200 HR 10/30, 22°C, 10 mM Tris-HCl pH 7.2, 500 mM NaCl; reduced holoenzyme, 12.7 µM FAD and 1 mM sodium dithionite, anaerobic buffer
[2] = target: StyA1 styrene monooxygenase from Rhodococcus opacus 1CP (Rhodococcus opacus 1CP) (UniProt C7ACG0); experiment: SEC; analytical gel filtration, Superdex 200 HR 10/30, 22°C, 0.6 mL/min, 10 mM Tris-HCl pH 7.2, 500 mM NaCl; 100 µL of protein (1.95 mg/mL StyA1, 2.17 mg/mL StyA2B, 11.45 mg/mL StyA); apo-enzyme, no FAD
[3] = target: StyA1 styrene monooxygenase from Rhodococcus opacus 1CP (Rhodococcus opacus 1CP) (UniProt C7ACG0); experiment: SEC; analytical gel filtration, Superdex 200 HR 10/30, 22°C, 10 mM Tris-HCl pH 7.2, 500 mM NaCl; oxidized holoenzyme, 12.7 µM FAD in buffer and sample
StyA1 = target: T1, StyA1 (Rhodococcus opacus, UniProt C7ACG0); experiment: analytical gel filtration, oligomer shift; format: binding; conditions: 12.7 µM FAD, no dithionite; 10 mM Tris-HCl pH 7.2, 500 mM NaCl, 22 °C
T1 construct: N-terminal His10 tag kept, E. coli BL21; apo form purified; monomer-dimer, dimer with reduced FAD; oxygenase assays with P. fluorescens ST StyB as coupling reductase
T1 sequence (C7ACG0 entry or part of it): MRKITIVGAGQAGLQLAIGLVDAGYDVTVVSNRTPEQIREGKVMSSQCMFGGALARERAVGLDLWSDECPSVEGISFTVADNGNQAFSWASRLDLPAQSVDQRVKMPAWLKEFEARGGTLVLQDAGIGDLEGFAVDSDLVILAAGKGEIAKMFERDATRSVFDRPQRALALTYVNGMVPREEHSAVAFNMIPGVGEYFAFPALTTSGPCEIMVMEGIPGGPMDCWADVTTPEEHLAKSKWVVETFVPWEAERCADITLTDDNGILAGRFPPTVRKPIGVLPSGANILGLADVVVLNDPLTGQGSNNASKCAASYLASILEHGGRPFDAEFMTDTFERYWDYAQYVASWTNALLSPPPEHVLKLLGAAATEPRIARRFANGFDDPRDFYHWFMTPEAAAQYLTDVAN

[4] = target: StyA2B self-sufficient styrene monooxygenase from Rhodococcus opacus 1CP (Rhodococcus opacus 1CP) (UniProt C7ACG1); experiment: SEC; analytical gel filtration, Superdex 200 HR 10/30, 22°C, 10 mM Tris-HCl pH 7.2, 500 mM NaCl; reduced holoenzyme, 12.7 µM FAD and 1 mM sodium dithionite, anaerobic buffer
[5] = target: StyA2B self-sufficient styrene monooxygenase from Rhodococcus opacus 1CP (Rhodococcus opacus 1CP) (UniProt C7ACG1); experiment: SEC; analytical gel filtration, Superdex 200 HR 10/30, 22°C, 0.6 mL/min, 10 mM Tris-HCl pH 7.2, 500 mM NaCl; 100 µL of protein (1.95 mg/mL StyA1, 2.17 mg/mL StyA2B, 11.45 mg/mL StyA); apo-enzyme, no FAD
[6] = target: StyA2B self-sufficient styrene monooxygenase from Rhodococcus opacus 1CP (Rhodococcus opacus 1CP) (UniProt C7ACG1); experiment: SEC; analytical gel filtration, Superdex 200 HR 10/30, 22°C, 10 mM Tris-HCl pH 7.2, 500 mM NaCl; oxidized holoenzyme, 12.7 µM FAD in buffer and sample
StyA = target: T2, StyA (Rhodococcus opacus, UniProt A0A076JVU4); experiment: HPLC of phenyl vinyl sulfoxide formed; format: biochemical; conditions: StyB of P. fluorescens ST (threefold excess), FAD, NADH regeneration by formate dehydrogenase, catalase
T2 construct: full length, 427 residues, 46,580 Da calculated; apo form purified; monomer; P. fluorescens ST StyB as coupling reductase in oxygenase assays

purified protein [7] = substrate: NC(=O)C1=CN([C@@H]2O[C@H](COP(=O)(O)OP(=O)(O)OC[C@H]3O[C@@H](n4cnc5c(N)ncnc54)[C@H](O)[C@@H]3O)[C@@H](O)[C@H]2O)C=CC1; experiment: purified protein; format: biochemical, Pseudomonas fluorescens; conditions: FAD in excess, 8 mM Tris-HCl pH 7.5, 30 °C
purified protein [8] = substrate: Cc1cc2nc3c(=O)[nH]c(=O)nc-3n(C[C@H](O)[C@H](O)[C@H](O)COP(=O)(O)OP(=O)(O)OC[C@H]3O[C@@H](n4cnc5c(N)ncnc54)[C@H](O)[C@@H]3O)c2cc1C; experiment: purified protein; format: biochemical, Pseudomonas fluorescens; conditions: NADH in excess, 8 mM Tris-HCl pH 7.5, 30 °C
[9] = substrate: NC(=O)C1=CN([C@@H]2O[C@H](COP(=O)(O)OP(=O)(O)OC[C@H]3O[C@@H](n4cnc5c(N)ncnc54)[C@H](O)[C@@H]3O)[C@@H](O)[C@H]2O)C=CC1; experiment: NADH consumption, spectrophotometric, Michaelis-Menten fit; format: biochemical, Rhodococcus opacus; conditions: FAD in excess, 8 mM Tris-HCl pH 7.5, 30 °C, read at 320 nm, apparent constant
Excerpt: (§1) NADH consumption, spectrophotometric, Michaelis-Menten fit on StyB-1CP (StyB from Rhodococcus opacus 1CP)

[10] = substrate: Cc1cc2nc3c(=O)[nH]c(=O)nc-3n(C[C@H](O)[C@H](O)[C@H](O)COP(=O)(O)OP(=O)(O)OC[C@H]3O[C@@H](n4cnc5c(N)ncnc54)[C@H](O)[C@@H]3O)c2cc1C; experiment: as above; format: biochemical, Rhodococcus opacus; conditions: NADH in excess, 8 mM Tris-HCl pH 7.5, 30 °C, read at 320 nm, apparent constant
Excerpt: as §1

[11] = target: the molecule itself; experiment: SEC; data not shown; StyB in the presence of the cofactor FAD; method taken from the section on quaternary structure (analytical gel filtration), not given
[12] = target: the molecule itself; experiment: SEC; analytical gel filtration, Superdex 200 HR 10/30, 22°C, 10 mM Tris-HCl pH 7.2, 500 mM NaCl; oxidized holoenzyme, 12.7 µM FAD in buffer and sample
[13] = target: the molecule itself; experiment: SEC; analytical gel filtration, Superdex 200 HR 10/30, 22°C, 0.6 mL/min, 10 mM Tris-HCl pH 7.2, 500 mM NaCl; 100 µL of protein (1.95 mg/mL StyA1, 2.17 mg/mL StyA2B, 11.45 mg/mL StyA); apo-enzyme, no FAD

StyA1 styrene monooxygenase from Rhodococcus opacus 1CP (from UniProt C7ACG0 1-406) (enzyme)
stoichiometry N [1]: 2
stoichiometry N [2]: 2
stoichiometry N [3]: 2

Cc1cc2nc3c(=O)[nH]c(=O)nc-3n(C[C@H](O)[C@H](O)[C@H](O)COP(=O)(O)OP(=O)(O)OC[C@H]3O[C@@H](n4cnc5c(N)ncnc54)[C@H](O)[C@@H]3O)c2cc1C [FAD]
analytical gel filtration, oligomer shift (StyA1): For holo-StyA1, the equilibrium shifted towards the dimeric form

StyA2B self-sufficient styrene monooxygenase from Rhodococcus opacus 1CP (from UniProt C7ACG1 1-573) (enzyme)
stoichiometry N [4]: 2
stoichiometry N [5]: 2
stoichiometry N [6]: 2

C=CSc1ccccc1 [phenyl vinyl sulfide]
HPLC of phenyl vinyl sulfoxide formed (StyA): All three SMO isoforms were found to convert this substrate

B1: StyB-ST (StyB from P. fluorescens ST) (Pseudomonas fluorescens) (protein)
chain: MTLKKDVAVDIDSTCFRQAVALFATGIAVLSAETEEGEVHGMTVNSFTSISLDPPTVMVSLKSGRMHELLTRGGRFGVSLLGESQKVFSAFFSKRVMDDTPSPAFTIQAGLPTLRDAMAWFECEVESTVQVHDHTLFIARVSACGTPEANAPQPLLFFASRYHGKPLPLN
notes: full length; E. coli BL21
Km (purified protein [7]): 18.9 ± 1.0 µM
kcat (purified protein [7]): 8.8 ± 0.1 s⁻¹
kcat/Km (purified protein [7]): 466000 M⁻¹ s⁻¹
Km (purified protein [8]): 2.6 ± 0.4 µM
kcat (purified protein [8]): 8.7 ± 0.3 s⁻¹
kcat/Km (purified protein [8]): 3.35e+06 M⁻¹ s⁻¹

B2: StyB flavin reductase from Rhodococcus opacus 1CP (enzyme, UniProt A0A076K0M4 1-177, looked up)
chain: MTRAAEAPPAPEVLSAPVEVAADSTQFRNSVALFATGIAVVTMQDGEGGVHGATINSFTSISLDPPTVMISLKPGYAHELISKSGWYGVSVLSKTQQEHSRYFCGTRDSDWHPQFVAGENVPTLFGSLARFECKVIDTITVNDHTLFLARVARCESEDGSPLMFFASTYHQPALGES
notes: StyB, FAD reductase of the styABCD cluster, Rhodococcus opacus 1CP, 178 amino acid residues, calculated mass 19,053 Da; also called StyB-1CP; source: E. coli BL21, purified (HisTrap FF IMAC), concentrated in the presence of 10 µM FAD
Km [9]: 59.3 ± 4.2 µM
kcat [9]: 26.9 ± 0.6 s⁻¹
kcat/Km [9]: 454000 M⁻¹ s⁻¹
Km [10]: 108.3 ± 18.3 µM
kcat [10]: 32.9 ± 2.3 s⁻¹
kcat/Km [10]: 304000 M⁻¹ s⁻¹
stoichiometry N [11]: 2

B3: StyA styrene monooxygenase from Rhodococcus opacus 1CP (styABCD cluster) (enzyme, UniProt A0A076JVU4 1-426, looked up)
chain: MSKRIAIVGAGTAGLHLGLYLNEKGIDATIFTDRRPEEYANIRLLNTVAHHSVTIDREDALGIDHWPNDGYFGHYYYVGIPGMPIRSYGDLAKPSRAVDYRILQPQLMRDFEERGGKIEYRPIRVEDLTVLSDDYDLVVIGTGKGGLGTLFARDEQSSPFTEPQRQLCVGIFKGIAPAETRAVTFCISPGAGEMIEIPTVTFSGDATALVFENHIGSDLEVLAHTRYEDDPRAFLDLMIEKLKQHYPITAERLDEKEFDVANSHLDILQGGVTPTVRHGHVKLDNGKLAVLLGDAHATVDPVLGQGGNMASYAAHVLGEEIAGNEVYDELFCERVDARRAGRVLGATRWTNFMLSNLKELPNHFVEFLGRVMMDRQLADRFTDNFNYPEKQWDIFSSPENMVAWIEANETGAEETERPFAQTGAQS
notes: StyA of the styABCD cluster, Rhodococcus opacus 1CP, 427 amino acid residues, calculated mass 46,580 Da; amplified from genomic DNA with printed primers that hold the start codon (NdeI CATATG) and the stop codon (TCA in the reverse primer); Apparent subunit mass 50 kDa including the His-tag (SDS-PAGE); also called holo-StyA; source: E. coli BL21, purified (HisTrap FF IMAC)
stoichiometry N [12]: 2
stoichiometry N [13]: 2 and 4

Source: PMC4460183, “Catalytic and hydrodynamic properties of styrene monooxygenases from Rhodococcus opacus 1CP are modulated by cofactor binding” (AMB Express, 2015)
